Test results published in the RNAGym collection of RNA variant scans (doi:10.7554/elife.80360).

B1: CPEB3 Ribozyme (parent)
chain: GGGGGCCACAGCAGAAGCGUUCACGUCGCGGCCCCUGUCAGAUUCUGGUGAAUCUGCGAAUUCUGCUGU

Variants of: B1
Experiment: self-cleavage, relative activity (ratio to wild type); higher = more cleavage; co-transcriptional

Variant | self-cleavage
U49C G58U | 0.988
U49C G58A | 0.911
G50A A52U | 0.993
G50A A52C | 1.04
U49A U61A | 0.979
U49A U61G | 0.904
U49G C63G | 0.907
U49G C63U | 0.994
U49G C63A | 0.952
U49G G68U | 1.01
G50A U55A | 0.912
G50C A59C | 0.68
G50C A59G | 1.03
G50C A59U | 0.767
U49C U61G | 0.829
U49G U62C | 0.923
U49G U62A | 0.937
U49G U62G | 0.898
U49A C63A | 0.943
U49A C63G | 0.878
U49G G50A | 1.02
U49C A52C | 1.03
U49C A52G | 0.972
U49C A52U | 0.93

Variant | self-cleavage
U49G A52C | 0.952
U49G A52U | 0.986
U49A G58U | 0.972
U49A G58C | 1.02
U49C G65A | 0.89
U49C G65C | 0.634
U49C G65U | 0.79
G48U U67C | 1
G48U U67G | 1.05
G48U U67A | 1.01
G50A C66U | 1.01
U49G G58A | 0.912
U49G U67G | 1.05
U49G U67A | 1.04
U49A A59C | 0.798
U49A A59U | 0.85
U49A A59G | 0.995
U49A U55A | 0.968
G50A G58A | 1.01
G50A G58U | 1.02
U49G C66G | 0.908
U49G C66U | 0.98
G48U U64A | 0.96
G48U U64C | 0.876

Variant | self-cleavage
G48U U64G | 0.955
U49A G68A | 1.02
U49A G68C | 0.994
G50A C63G | 0.859
G50A C63A | 0.856
U49C A59U | 0.811
U49C A59C | 0.764
U49C A59G | 0.985
U49C U62G | 0.932
U49C U62C | 0.827
G50A G56A | 0.909
G48U U69G | 1.05
G48U U69A | 1.01
G48U U69C | 1.04
G48U U62C | 0.929
U49C A51C | 0.981
U49C A51U | 0.887
G50C A60C | 0.34
U49C U67A | 0.946
U49C U67C | 0.986
U49C U67G | 0.969
U49C G56C | 0.778
U49G C54U | 0.972
G50A G68C | 1.02

Variant | self-cleavage
G50A G68U | 1.02
U49G G56C | 0.709
U49G G56A | 0.966
U49G G56U | 0.978
U49C U53C | 0.948
U49C U53G | 0.859
U49C U53A | 0.962
U49A C54U | 0.995
U49A C54G | 0.947
U49A C54A | 0.641
G50A U67A | 0.989
U49G U69G | 1.02
G50C A51U | 0.942
G50A C54A | 0.81
U49G G65C | 0.607
U49G G65U | 0.787
U49A C57A | 0.273
U49A C57G | 0.346
U49A G50A | 0.995
U49A G50C | 1.02
G50A A59G | 1.02
G50A A59U | 0.834
U49A C66G | 0.96
U49A C66A | 0.911

Variant | self-cleavage
U49C U69C | 1.04
U49C U69G | 1.05
U49C U69A | 1.04
U49G A60U | 0.432
U49G A60G | 0.948
U49A G56A | 1
U49A G56U | 0.991
U49A U69G | 1.06
U49A U62A | 0.99
U49A U62C | 0.825
G50A U53G | 0.9
G50A U53C | 0.949
G50A G65A | 0.901
G50A G65U | 0.882
U49C G68A | 1.01
U49C G68U | 1.03
U49C G68C | 0.998
G50A A60U | 0.449
G50A A60C | 0.369
G50A A60G | 1.02
U49G U64A | 0.985
U49G U55G | 0.819
U49G U55C | 0.814
U49C G50C | 1.03

Variant | self-cleavage
U49C G50U | 1.03
U49G U61C | 0.802
U49G U61A | 0.921
U49G C57G | 0.284
U49G C57A | 0.425
U49G C57U | 0.282
U49G A59C | 0.68
U49A A51U | 1
G50A U61A | 0.862
G50A U61C | 0.799
U49C C54G | 0.789
U49C C54U | 0.965
G50A U69G | 1.06
G50A U69C | 1.07
G50C A52G | 0.985
G50C A52C | 0.946
U49A A60U | 0.582
U49A A60C | 0.394
U49A A60G | 0.915
U49C C63A | 0.882
U49C C63G | 0.832
U49A G65A | 0.934
U49A G65C | 0.476
U49G A51C | 0.939

Variant | self-cleavage
U49C A60C | 0.354
U49C A60U | 0.535
U49C C57A | 0.216
U49C C57U | 0.345
U49C C57G | 0.265
G50A U64A | 0.937
G50A U62G | 0.959
G50A U62A | 0.986
G50A U62C | 0.949
U49C U64C | 0.907
G50A A51G | 0.978
G50A A51U | 0.987
U49A U64C | 0.919
U49A U64G | 0.835
U49A U53G | 0.95
U49A U53A | 0.984
U49A U67A | 1.05
U49C C66U | 0.973
U49C C66G | 0.879
G50A C57G | 0.301
U49C U55A | 0.936
U49C U55C | 0.795
U49A A52G | 0.979
